The values below are quoted from earlier work in article PMC3234256.

The target of the series is Lys73 (UniProt position 71, MMSTFKVLLCG). Description: NMR.

On to “TEM-1 beta-lactamase (class A) (Escherichia coli)”, for which the pKa result is “above 10”.
